This data set is described as follows: yeast display, Sf9 membrane polyspecificity reagent, FACS + sequencing; frameworks hold sequencing errors. In short, it runs like this:
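Polyreactivity labels are assigned by the sorting gate from which each nanobody was recovered. The gates were low and high (top ~1%), set on anti-HA fluorescence for expression and streptavidin fluorescence for reagent binding. Before sorting, galactose-induced (36–48 hours) yeast display cells were stained for 1 hour at 4 °C with 10% biotinylated, detergent-solubilized Sf9 membrane reagent.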
Take “QVQLVESGGGLVQAGGSLRLSCAASGSIFVSYAMGWYRQAPGKERELVAAITRSGGSTYYADSVKGRFTISRDNAKNTVYLQMNSLKPEDTAVYYCAARSYLGAYRRYYWGQGTQVNVSS”: the “polyreactivity (PSR sort gate)” value is given as “high polyreactivity”. With “QVQLVESGGGLVQAGGSLRLSCAASGIIFYYYAMGWYRQATGKERELVAAITRSGGSTYYADSVKGRFTISRDNAKNTVYLQMNSLKPEDTAVYYCAAARLPYYVGRYYYWGQGTQVTVSS”, the “polyreactivity (PSR sort gate)” value is recorded as “high polyreactivity”.

For “QVQLVESGGGLVKAGGSLRLSCAASGRTFFRNAMGWYRQAPGKEREFVAAINSSGGSTYYADSVKGRFTISRDNAKNTVYFQMNSLKPEDTAVYYCARYHYPFYKPYGFGYWGQGTQVTVSS”, the “polyreactivity (PSR sort gate)” value is reported as “high polyreactivity”. The entry for “QVQLVESGGGLVQAGGSLRLSCAASGSTFWWNTMGWYRQAPWKERELVADIRTSGGGTYYADSVKGRFTISRDNAKNTVYLQMNSLKPEDTAVYYCNADPKWEMGSWGQGTQVTVSS” is “low polyreactivity”.

With “QVQLVESGGGLVQAGGSLSLSCAASGSTLRQYAMGWYRQAPGKERELVAGISYRGGRTYYADSVKVRFTISRDNAKNTVYLQMNSLKPEDTAVYYCNALRHYGDISVDCDDYWGQGTQVTVSS”, the “polyreactivity (PSR sort gate)” value is “high polyreactivity”. As to “QVQLVESGGGLVQAGGSLRLSCAASGSTFIGSDMGWYRQAPGKERELVAAISYSDGTYYADSVKGRFTISRDNAKNTVYLQMNSLKPEDTAVYYCATSYRDIGSHVGYWGQGTQVTVSS”, the “polyreactivity (PSR sort gate)” value is “low polyreactivity”. Turning to “QGQRVESGGGLVQAGGSLRLSCAASGSTFPWYAMGWYRQARGSERELVAGISEGGASTYYADSVKGRFTISRDNAKNTVYLQMNSLNPEDTAVYYCAADQVGAVYWVGEYGYWGQGTHVTVSS”, the “polyreactivity (PSR sort gate)” value is “low polyreactivity”.

For “QVQLVESGGGLVQPGGSLRLSCAASGRTFVPYAMGWYRQAPGKEREFVAVITWGGGSTYYADSVKGRFTISRDNAKNTVYLQMNSLKPEDTAVYYCDARVYYHYDYWGQGTQVTVSS”, the “polyreactivity (PSR sort gate)” value is “high polyreactivity”.

Take “QVQLVESGGGLVQAGGSLRLSCAASGRIFRRYAMGWYRQAPGKERELVAAITSGSSTNYADSVKGRFTISRDNAKNTVYLQMNSLKPEDTAVYYCNAKLRGYYYSRYNYWGQGTQVTVSS”: the “polyreactivity (PSR sort gate)” value is “high polyreactivity”. For “QVQLVESGGGLDQAGGSLRLTCAASGFTFTIYAMGWYRQAPGKERELVATISGRAGRTYYADSVMGRFTISRDNAKNTVSLQMTSLKPEDTAVYYCNAGQWRYPGLYYYWGQGTQVNVSS”, the “polyreactivity (PSR sort gate)” value is “high polyreactivity”.

For “QVQLVESGGGLVQAGGSLRLSCAASGFTFVYYVMGRYRPAPGKERDLVAAINAGGGSTYYADSVKGRFTISRDNAKNTVYLQMNSLKPEDTSVYYCAARYHTSTRPCRNYWGQGTQVTVSS”, the “polyreactivity (PSR sort gate)” value is on record as “high polyreactivity”. For “QVQLVESGGGLVQAGGSLRLSCAASGRILYLNDMGWYRQAPGKERELGAAITRRAGSTSYADSVKGRFTISRDNAKNTFYLQMNSLKPEDTAVYYCAKATSRRGFYYWGQGTQVTVSS”, the “polyreactivity (PSR sort gate)” value is given as “high polyreactivity”. Consider “QVQLVESGGGLVQAGGSLRLSCAASGSNFKWYAMGWYRQAPGKERELVSAISKSGGSTYYADSVKGRFTISRDNAKNTVYLQMNSLKPEDTAVYYCNAVYIGSRRRYEYDYWGQGTQVTVSS”, for which the “polyreactivity (PSR sort gate)” value is listed as “high polyreactivity”. Consider “QVQLVESGGGLDQAGGSLRLSCAASGSTFYYNAMGWYRQAPGKERELVAAISSDGSTNYADSVKGRFTISRDNAKNTVYLQMNSLKPEDTAVYYCAKKDFYFAPSPGYYRSRDYWGQGTQVTVSS”, for which the “polyreactivity (PSR sort gate)” value is “low polyreactivity”. In the case of “QVQLVESGGGLVQAGGSLRLSSAASGRTFGYNAMGWYRPATGKERELVAAISWSGARTYYADSVKGRFTISRDIAKNTVYLQLNSLTPEDTAVYYCAAGIDGYYWPFFRNYDYWGQGTQVTVSS”, the “polyreactivity (PSR sort gate)” value is recorded as “high polyreactivity”. The entry for “QVQLVESGGGLVQAGGSLRLSCAASGRTFARYAMGWYRQAPGKERELVAAITRRGGSTYYADSVKGRFTISRDNAQNTVYLQMNSLKPEDTAVYYCAVPWYTRESGAYDYWGQGTQVTVSS” is “high polyreactivity”. Consider “QVQLVESGGGLVQAGGSLRLSCAASGFIFSQNAMGWYRQAPGKERELVAAITSGGGTNYADSVKGRFTISRDNAKNTVYLQMNSLKPEDTAVYYCAADDEKRYSYQTYFERDYWGQGTQVTVSS”, for which the “polyreactivity (PSR sort gate)” value is “low polyreactivity”. Regarding “QVQLVESGVGLVQAGGSLRLSCAASGVTFYQYAMGWYRQAPGKERELVAAITRRGGSTSYADSVKGRFTISRDNAKNHVFLKMTRLIPEDTSVYYCNALYGSAFATQVESDYWGQGTQVNVSS”, the “polyreactivity (PSR sort gate)” value is listed as “high polyreactivity”. Consider “QDQLVESGGGLVQAGGSLRLSCAASGTTFQYNAMGWYRQAPGKERELVAAISGSGGSTYYADSVKGRFTISRDNAKNTVYLEMNSLKPEDTAVYYCARVGYRHGYYNYCGQGTQVTVSS”, for which the “polyreactivity (PSR sort gate)” value was “high polyreactivity”. The entry for “QVQLVESGGGLVKAGGSLRLSCAASGRIDWYYAMGLYRQAPRKERDLVAAISRSGGTTYYADSVKGRFTISRDNAKNSVFLQMNSLQPEDTEVYYCAAVFHAYTGYEAWEEYEYWGQGTQVTVSA” is “high polyreactivity”. Consider “QVQLVESGGGLVQAGGSLRLSCAASGRTFLTNAMGWYRQAPGKERELVAAITSSGGSTYYADSVKGRFTISRDNAKNTVYLLMNSLKPEDTAVYYCNKKSALYRRYDYWGQGTQVTVSS”, for which the “polyreactivity (PSR sort gate)” value is given as “low polyreactivity”.

As for “QVQLVESGGGLVQAGGSLRLSCAASGSIFLTYAMGWYRQAPGKESELVAAISSGDSTNYTDSVKGRFTISRDNAKNTVYLQMNSLKPEDTAVYYCAADLTYTMDHWGQGTQVTVSS”, the “polyreactivity (PSR sort gate)” value is on record as “low polyreactivity”. Consider “QVHLVESGGGLVQAGGSLRLSCAASGSTFGGNAMGWYRQPPGKERELVAAISSGDSTTYADSVKGRFTISRDNAKNTVYLQMNSLKPEDTAVYYCNADYTDTLTGYFSDEVYHGMDYWGQGTQVTVSS”, for which the “polyreactivity (PSR sort gate)” value is “low polyreactivity”. Regarding “QVQLVESGGGLVQAGGSLRLSCAASGFIFRYNAMGWYRQAPGKERELVAAIDSGGSTYYADSVKGRFTISRDNAKNTVYLQMNSLKPEDTAVYYCNAVHEASYAGVDYWGQGTQVTVSS”, the “polyreactivity (PSR sort gate)” value is recorded as “low polyreactivity”. For “QVQLVESGGGIVQAGGSLRLSCAASGSIFVHNDLGWYRQAPGKERELVARINTGGGTNYADSVKGRFTISRDNAKKTVYLQMNSLKPEDTAVYYCATDGDRDDHYFTDPEFDYWGQGTQVTVSS” the value was “low polyreactivity”; for “QVQLVESCGGLVQAGGSLRISCAASGRIFRPYAMGWYRQAPGPEREFVAAITSGSNTYYADSVKWRFTISRDNAKNTVYLQMNSLKPEDTAFYYCAAVQRKRAPAETAYGYWGQGPQVTVSS”, “high polyreactivity”; for “QVQLVESGGGLVQAGGSLRLSCAASGGIFSYYVMGWYRQAPGKEREFVASITQRGRTYYADSVKGRFTISRDNAKNTVYLQINSLKPEDTAVYYCAAGIYAFRRHREEYDYWGQGTQVTVSS”, “high polyreactivity”. As for “QVQLVESGGGLVQAGRSLRLSCAASGFTFYYNAMGWYRQAPGKERELVAAISSGGSTYYADSVKGRFTISRDNAKNTVYLQMNSLKPEDTAVYYCAADSLYYRYDFWGQGTQVTVSS”, the “polyreactivity (PSR sort gate)” value is “low polyreactivity”. For “QVQLVESGGGLVQAGGSLRLSCAASGFIFRRNAMGWYRQAPGKERELVASIRSGGSTKYADSVKGRFTISRDNAKNTVYLQMNSLKPEDTAVYYCAKDRYHISFFYQMEYWGQGTQVTVSS” the value was “low polyreactivity”; for “QVQLVESGGGLDQAGGSLRLSCAASGLTFYSYAMGWYRQAPGKERELVAAISSSGGNTYYADSVKGRFTISRDNAKNTVYLQMNSLKPEDTAVYYCAARYTAYIQYGMGYWGQGTQVTVSS”, “high polyreactivity”. For “QVQLVESGGGLVQAGGSLRLSCAASGRTFRRYAMGWYRQAPGKERELVAAITSGGSTNYADSVKGRFTISRDNAKNNVYLQMNSLKPEDTAVYYCNARYFRGYDYWGQGTQVTVSS” the value was “high polyreactivity”; for “QVQLVESGGGLVQAGGSLLLSCAASGRTFAPYAMGWYRQAPGKERELVAAISSGGGNTYYADSVKGRFTISRDNAKNTVYLQMNSMKPEDTAVYYCAKPRARQDFDYWGQGTKVTVSS”, “high polyreactivity”. The entry for “QVQLVESGGGLVQAGGSLRLSCAASGRIFFGYAMGWYRQAPGKEREFVAAITRRGGSTYYADSVKGRFTISRDNAKNTVYLQMNSLKPEDTADYYCAKDTIGGASPHYYWGQGTQVTVSS” is “high polyreactivity”. With “QVQLVESGGGLVQAGGSLRLSCAASGFTFVRYAMGWYRKAPGKERELVAAISGSGDRTYYADSVKGRFTISRDNAKNTVYLQMNSLKPEDTAVYYCAKKSLGARHTGRYNYWGQGTQVTVSS”, the “polyreactivity (PSR sort gate)” value is “high polyreactivity”. The entry for “QVQLVESGGGLVQSGGSLRLSCAASGIKFYYNARGWYRPAPGKERELVARITWRAGSTYYADSVKGRFTISRDNAKNTVYLQMNSLKPEDTAVYYCNADHDGLGYYFWGQGTQVTVSS” is “high polyreactivity”; for “QVQLVESGGGLVQAGGSLRLSCAASGRTFEWYALGWYRQAPGKERELVAAIRSGGGTNYADSVKGRFTISPDNAKNTVYLQMNSLKPEDTAVYYCAKEWAGGLYDYWGQGTQVTVTS” it is “low polyreactivity”.

With “QVQIVETGGGLVQAGGSLRLSCAASGSIFSAYVMGWYRQAPGKERELVAAITRTGGRTYYADSVKGRFTISRDNAKNTVYLQMNSLKPEDTAVYYCAKEAITRTFPYRHEYWGQGTQVTVSS”, the “polyreactivity (PSR sort gate)” value is reported as “low polyreactivity”. For “QVHLVESGGGLVQAGGSLRLSCAASGSIFGSNAMGWYRQAPGKERELVAAISRRGGNTYYADSVKGRFTISRDNAKNTVYLQLNSLKPEDTAVYYCAAPKDPDRVQYDYWGQGTQVTVSS” the value was “low polyreactivity”; for “QVQLVESGGGLVQAGGSLRLSCAASGRTFVPYAMGWYRQAPGKERELVAAINSGGSTYYADSVKGRFSISRDNAKNTVYLQMNSLKPEDTAVYYCAAEYWNSRFSYAYGYWGQGTQVTVSS”, “high polyreactivity”.

On to “QVQLVESGGGLVQAGGSLRLSCAASGSIFNSYAMGWYRQAPGKERELVAAISKRGGSTYYADSVKGRFTISRDNAKNTVYLQMNSLKPEDTAVYYCAAEYYYAGWSYSYDYWGQGTQVTVSS”, for which the “polyreactivity (PSR sort gate)” value was “high polyreactivity”. Take “QVQLVESGGGLVQAGGSLRLSCAASGSIFGYYDMGWYRQAPGKERELVAAISSRGGITYYADSVKGRFTISRDHAKNTVYLQMNSLKPEDTAVYYCAAYAYFHRREGYWVQGTQVTVSS”: the “polyreactivity (PSR sort gate)” value is “high polyreactivity”.

These data come from the nanobody polyreactivity screen of Harvey et al. (2022).
